B1: isolated FERM domain of human SNX27 (domain or fragment, UniProt Q96L92 269-531, looked up)
chain: YNGVSDVELRVALPDGTTVTVRVKKNSTTDQVYQAIAAKVGMDSTTVNYFALFEVISHSFVRKLAPNEFPHKLYIQNYTSAVPGTCLTIRKWLFTTEEEILLNDNDLAVTYFFHQAVDDVKKGYIKAEEKSYQLQKLYEQRKMVMYLNMLRTCEGYNEIIFPHCACDSRRKGHVITAISITHFKLHACTEEGQLENQVIAFEWDEMQRWDTDEEGMAFCFEYARGEKKPRWVKIFTPYFNYMHECFERVFCELKWRKENIFQM
notes: FERM domain of human SNX27; The AlphaFold2 modelling took the FERM domain as residues 269 to 531; also called hSNX27_(FERM)

Key:
Conditions in all cases: both partners purified
[1] = target: T1, full-length mouse SNX1 with an N-terminal His-tag (mouse, UniProt Q9WV80 1-522); test: ITC; 800 μM hSNX27 FERM titrated into 20 μM GST-mSNX1(1-139) or His-SNX1FL; 25 °C; 50 mM HEPES pH 7.5, 200 mM NaCl, 5% glycerol, 1 mM β-ME; single-site model
T1 construct: SNX1, mouse, full length; Vector pMW172Kan; also called mSNX1FL; His-SNX1FL; source: E. coli BL21 CodonPlus (DE3), purified (TALON or Ni-NTA, SEC); not shown: His-tag, N-terminal, kept

full-length mouse SNX27 = target: T2, full-length mouse SNX27 (mouse, UniProt Q3UHD6 1-539); test: ITC; 800 μM SNX1 or SNX2 peptide titrated into 20 μM full-length mouse SNX27; 25 °C; 50 mM HEPES pH 7.5, 200 mM NaCl, 5% glycerol, 1 mM β-ME with 1:10 peptide buffer (100 mM Tris-HCl pH 10.6); single-site model
T2 construct: SNX27, mouse, full length; Vector pMCSG7, ligation independent cloning; also called mSNX27FL

[2] = target: T3, human SNX27 full length, wild type (human, UniProt Q96L92 1-541); test: ITC; 600 μM SNX1(75-92) peptide titrated into 20 μM hSNX27 wild type or single-site mutant; 25 °C; 50 mM HEPES pH 7.5, 200 mM NaCl, 5% glycerol, 1 mM β-ME; single-site model
T3 construct: SNX27, human, full length; also called hSNX27FL; hSNX27 WT

human SNX27(K496D) = target: T4, human SNX27(K496D) (human, UniProt Q96L92 1-541, K496D); test: as above
T4 construct: SNX27, human, full length; the text prints R496D, the methods and the legend K496D; also called hSNX27 K496D; SNX27(R496D)

[3] = target: B1; test: ITC; 800 μM hSNX27 FERM titrated into 20 μM GST-mSNX1(1-139) or His-SNX1FL; 25 °C; 50 mM HEPES pH 7.5, 200 mM NaCl, 5% glycerol, 1 mM β-ME; single-site model

Row | Kd (full-length mouse SNX27) | Binder | also measured
1 | – | B1 | Kd [1]: 41 µM
2 | 33.4 µM | EAGDSDTEGEDIFTGAA (SNX1, human, residues 35 to 51; also called first aDLF motif of human SNX1; source: synthetic peptide (Genscript)) [SNX1_(35-51) peptide] | –
3 | 13.3 µM | NGIHEEQDQEPQDLFADA (SNX1, human, residues 75 to 92; also called SNX1 75 to 92; hSNX1_(75-92); source: synthetic peptide (Genscript)) [SNX1_(75-92) peptide] | Kd [2]: 12.7 µM; Kd (human SNX27(K496D)): 56.4 µM
4 | – | GST-mSNX1(1-139) (domain or fragment, mouse, UniProt Q9WV80 1-139, looked up, SNX1, mouse, residues 1 to 139; Vector pGEX4T-2, thrombin-cleavable GST; named GST-mSNX1(1-139) in the ITC; also called N-terminal extension of mouse SNX1; source: E. coli BL21 CodonPlus (DE3), purified (glutathione Sepharose, SEC); not shown: GST, N-terminal, kept) MASGGGGCSASERLPPPFPGMDPESEGAAGASEPEAGDSDTEGEDIFTGAAAATKPQSPKKTTSLFPIKNGSKENGIHEDQDQEPQDLFADATVELSLDSTQNNQKTMPGKTLTSHSPQEATNSPKPQPSYEELEEEEQ | Kd [3]: 39.1 µM
5 | 22.6 µM | TEVVLDDDREDLFAEATEEVS (SNX2, human, residues 62 to 82; also called SNX2 62 to 82; second aDLF motif of SNX2; source: synthetic peptide (Genscript)) [SNX2_(62-82) peptide] | –
6 | 37.8 µM | TDFEDLEDGEDLFTSTVS (SNX2, human, residues 16 to 33; also called SNX2 16 to 33; first aDLF motif of SNX2; source: synthetic peptide (Genscript)) [SNX2_(16-33) peptide] | –
